Measurements taken from publication PMC7388177 (Cell reports, 2020).
Substitutions are numbered along the chain they refer to. In names and notes the source's numbering stands. Each block holds one binder with its values, some of them ahead of it.

Columns and labels:
[1] = target: T1, human ATG9A, purified in LMNG (mVenus-His tag cleaved) (human), Q7Z3C6; assay: negative-stain EM; details: remark: other sources report otherwise
T1 chain: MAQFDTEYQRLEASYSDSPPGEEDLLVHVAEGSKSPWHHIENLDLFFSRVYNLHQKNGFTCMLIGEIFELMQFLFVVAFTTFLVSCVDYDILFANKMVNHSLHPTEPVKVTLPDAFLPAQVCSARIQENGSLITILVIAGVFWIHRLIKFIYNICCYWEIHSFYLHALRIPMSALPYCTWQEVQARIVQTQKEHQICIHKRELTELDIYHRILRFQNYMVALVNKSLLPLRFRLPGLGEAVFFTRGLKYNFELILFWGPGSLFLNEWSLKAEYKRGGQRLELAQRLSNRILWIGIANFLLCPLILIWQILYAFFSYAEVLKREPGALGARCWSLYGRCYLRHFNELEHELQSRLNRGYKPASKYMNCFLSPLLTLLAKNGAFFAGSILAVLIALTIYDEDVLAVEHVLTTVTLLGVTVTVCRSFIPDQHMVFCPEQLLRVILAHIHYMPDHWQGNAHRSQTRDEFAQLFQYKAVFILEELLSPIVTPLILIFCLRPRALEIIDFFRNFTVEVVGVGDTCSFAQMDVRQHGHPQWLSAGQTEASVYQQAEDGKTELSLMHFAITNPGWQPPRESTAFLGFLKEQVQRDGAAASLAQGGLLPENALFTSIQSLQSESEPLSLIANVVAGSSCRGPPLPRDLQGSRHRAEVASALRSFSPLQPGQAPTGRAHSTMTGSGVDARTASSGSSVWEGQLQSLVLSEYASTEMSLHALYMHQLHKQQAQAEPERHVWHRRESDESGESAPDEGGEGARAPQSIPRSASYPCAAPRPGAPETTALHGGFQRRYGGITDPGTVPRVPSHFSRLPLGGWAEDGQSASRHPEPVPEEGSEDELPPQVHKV

[2] = target: T2, ATG9A-mVenus fusion protein in membranes (human), Q7Z3C6; assay: cross-linking; details: remark: other sources report otherwise
T2 chain: T1 chain

cross-linking = target: the molecule itself; assay: cross-linking
[3] = target: T3, endogenous ATG9A of HeLa cells (human (endogenous in HeLa)), Q7Z3C6; assay: cross-linking; details: remark: other sources report otherwise
T3 chain: T1 chain

B2: ATG9A-mVenus fusion protein in membranes, Q7Z3C6 1-839 (natural protein)
chain: T1 chain
- stoichiometry N [2]: 3

B3: ATG9A-mVenus (F68C + N379C) (natural protein, human, UniProt Q7Z3C6 1-839, looked up)
chain: T1 chain with F68C, N379C
- stoichiometry N (cross-linking): 3

B5: ATG9A-mVenus (N57C + P371C) (natural protein, human, UniProt Q7Z3C6 1-839, looked up)
chain: T1 chain with N57C, P371C
- stoichiometry N (cross-linking): 3

Second part, the binder after the results:

- stoichiometry N [1]: 3
B1: human ATG9A, purified in LMNG (mVenus-His tag cleaved), Q7Z3C6 1-839 (natural protein)
chain: T1 chain

- stoichiometry N [3]: 3
B4: endogenous ATG9A of HeLa cells, Q7Z3C6 1-839 (natural protein)
chain: T1 chain
